In patent publication US20190022241A1 (AbbVie / Abbott, published 2019):
Blank lines part the entries; values can stand above or below the binder they belong to.

How the values were obtained:
[1] = target: T1, SEZ6 N3 (aa 170-335) on yeast (human, UniProt Q53EL9 189-354); test: yeast display, flow cytometry;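 further: antibody binding to individual SEZ6 domains displayed on yeast, measured by flow cytometry, antibody at 50 nM purified or hybridoma supernatant diluted 1:2, 90 min on ice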
T1 construct: yeast display
T1 sequence: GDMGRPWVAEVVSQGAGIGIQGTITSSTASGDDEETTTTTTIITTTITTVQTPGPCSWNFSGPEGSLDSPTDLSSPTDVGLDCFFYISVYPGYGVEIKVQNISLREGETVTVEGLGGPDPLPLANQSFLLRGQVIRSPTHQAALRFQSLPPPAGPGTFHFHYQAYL
Method: Individual domains of SEZ6 were expressed on the surface of yeast and binding by each SEZ6 antibody was determined through flow cytometry.
To test for binding to a particular construct, 200,000 induced yeast cells expressing the desired construct were washed twice in PBS+1 mg/mL BSA (PBSA), and incubated in 50 of PBSA with chicken anti c-myc (Life Technologies) at 0.1 μg/mL and either 50 nM purified antibody or 1:2 dilution of unpurified supernatant from hybridomas cultured for 7 days. Cells were incubated for 90 minutes on ice and then washed twice in PBSA. […] After twenty minutes' incubation on ice, cells were washed twice with PBSA and analyzed on a FACS Canto II.

[2] = target: T2, mouse SEZ6 on Neuro2a cells (mouse, UniProt Q7TSK2 20-991); test: flow cytometry, Neuro2a cells, 5 ug/mL antibody
T2 construct: endogenous on Neuro2a cells; also called murine SEZ6; mSEZ6
Method: (§1) Briefly 1×10⁵ cells per well of Neuro2a, RIN-5mF, or yeast displaying cynomolgus SEZ6 cells were incubated for 30 minutes with 50 μL PBS (2% FCS) buffer with 5 μg/mL antibody. […] After incubating for 15 minutes cells were washed twice with the PBS buffer and re-suspended in the same with DAPI for flow cytometry analysis of Neuro2a and Rin-m5F or buffer without DAPI for flow cytometric analysis of yeast cells with cSEZ6.

[3] = target: T3, rat SEZ6 on RIN-m5F cells (rat, UniProt Q7TSK2 20-991 (mouse entry)); test: flow cytometry, RIN-m5F cells, 5 ug/mL antibody
T3 construct: endogenous on RIN-m5F cells; also called rSEZ6
T3 chain: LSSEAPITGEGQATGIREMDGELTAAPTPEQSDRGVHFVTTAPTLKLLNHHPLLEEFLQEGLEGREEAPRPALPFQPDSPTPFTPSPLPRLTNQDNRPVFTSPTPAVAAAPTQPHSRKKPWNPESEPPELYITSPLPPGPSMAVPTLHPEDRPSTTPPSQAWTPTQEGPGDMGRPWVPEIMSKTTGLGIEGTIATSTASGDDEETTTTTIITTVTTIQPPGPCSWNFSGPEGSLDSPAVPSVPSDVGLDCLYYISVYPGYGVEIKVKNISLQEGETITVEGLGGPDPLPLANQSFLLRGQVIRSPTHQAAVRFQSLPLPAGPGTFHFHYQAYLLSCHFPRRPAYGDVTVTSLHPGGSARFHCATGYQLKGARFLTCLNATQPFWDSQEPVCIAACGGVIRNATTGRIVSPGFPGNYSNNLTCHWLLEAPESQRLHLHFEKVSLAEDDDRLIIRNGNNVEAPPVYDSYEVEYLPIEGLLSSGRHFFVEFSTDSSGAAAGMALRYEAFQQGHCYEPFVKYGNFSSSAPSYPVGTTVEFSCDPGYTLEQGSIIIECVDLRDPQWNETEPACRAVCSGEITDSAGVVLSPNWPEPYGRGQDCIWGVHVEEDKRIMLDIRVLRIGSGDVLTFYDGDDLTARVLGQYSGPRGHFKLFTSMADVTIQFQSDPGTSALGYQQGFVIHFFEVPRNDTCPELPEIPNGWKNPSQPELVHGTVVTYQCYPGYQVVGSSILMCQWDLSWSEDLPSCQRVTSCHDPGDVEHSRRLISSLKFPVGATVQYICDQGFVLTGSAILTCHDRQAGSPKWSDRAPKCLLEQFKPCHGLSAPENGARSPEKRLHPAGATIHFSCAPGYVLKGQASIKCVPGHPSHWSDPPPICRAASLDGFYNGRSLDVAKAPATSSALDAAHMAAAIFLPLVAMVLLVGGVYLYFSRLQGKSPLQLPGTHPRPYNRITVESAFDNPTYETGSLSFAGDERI
Method: as §1

human SEZ6L2 ECD-His = target: T4, human SEZ6L2 ECD-His (human, UniProt Q6UXD5 28-843); test: mark of Table 5 for antibodies that bind SEZ6L2
T4 construct: whole entry named
T4 sequence (Q6UXD5 other isoform, or with tags, fused parts or gaps): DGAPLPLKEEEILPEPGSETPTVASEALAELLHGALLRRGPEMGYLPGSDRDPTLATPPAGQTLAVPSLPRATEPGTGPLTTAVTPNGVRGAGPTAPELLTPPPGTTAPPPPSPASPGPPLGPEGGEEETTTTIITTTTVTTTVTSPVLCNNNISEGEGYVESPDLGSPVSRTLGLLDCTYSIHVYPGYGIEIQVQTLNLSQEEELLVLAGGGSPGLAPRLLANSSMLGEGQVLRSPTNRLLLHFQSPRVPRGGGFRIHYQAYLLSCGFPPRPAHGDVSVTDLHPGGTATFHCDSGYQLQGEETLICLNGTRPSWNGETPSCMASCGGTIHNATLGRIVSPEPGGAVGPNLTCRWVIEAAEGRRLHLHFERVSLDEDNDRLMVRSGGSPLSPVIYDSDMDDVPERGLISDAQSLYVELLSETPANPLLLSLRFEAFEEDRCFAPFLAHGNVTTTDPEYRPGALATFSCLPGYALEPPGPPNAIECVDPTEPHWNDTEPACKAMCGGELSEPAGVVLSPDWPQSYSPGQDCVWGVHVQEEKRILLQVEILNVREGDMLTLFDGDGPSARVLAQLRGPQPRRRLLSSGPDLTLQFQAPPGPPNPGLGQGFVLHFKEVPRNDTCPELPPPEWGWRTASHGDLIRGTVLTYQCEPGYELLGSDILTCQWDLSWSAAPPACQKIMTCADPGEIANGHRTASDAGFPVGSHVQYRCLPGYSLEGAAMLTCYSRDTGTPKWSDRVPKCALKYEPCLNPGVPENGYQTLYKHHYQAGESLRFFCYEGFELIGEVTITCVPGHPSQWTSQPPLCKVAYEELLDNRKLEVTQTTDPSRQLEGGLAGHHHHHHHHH

human SEZ6L ECD-His = target: T5, human SEZ6L ECD-His (human, UniProt Q9BYH1 29-955); test: ELISA on plates coated with SEZ6L protein
T5 construct: whole entry named
T5 sequence: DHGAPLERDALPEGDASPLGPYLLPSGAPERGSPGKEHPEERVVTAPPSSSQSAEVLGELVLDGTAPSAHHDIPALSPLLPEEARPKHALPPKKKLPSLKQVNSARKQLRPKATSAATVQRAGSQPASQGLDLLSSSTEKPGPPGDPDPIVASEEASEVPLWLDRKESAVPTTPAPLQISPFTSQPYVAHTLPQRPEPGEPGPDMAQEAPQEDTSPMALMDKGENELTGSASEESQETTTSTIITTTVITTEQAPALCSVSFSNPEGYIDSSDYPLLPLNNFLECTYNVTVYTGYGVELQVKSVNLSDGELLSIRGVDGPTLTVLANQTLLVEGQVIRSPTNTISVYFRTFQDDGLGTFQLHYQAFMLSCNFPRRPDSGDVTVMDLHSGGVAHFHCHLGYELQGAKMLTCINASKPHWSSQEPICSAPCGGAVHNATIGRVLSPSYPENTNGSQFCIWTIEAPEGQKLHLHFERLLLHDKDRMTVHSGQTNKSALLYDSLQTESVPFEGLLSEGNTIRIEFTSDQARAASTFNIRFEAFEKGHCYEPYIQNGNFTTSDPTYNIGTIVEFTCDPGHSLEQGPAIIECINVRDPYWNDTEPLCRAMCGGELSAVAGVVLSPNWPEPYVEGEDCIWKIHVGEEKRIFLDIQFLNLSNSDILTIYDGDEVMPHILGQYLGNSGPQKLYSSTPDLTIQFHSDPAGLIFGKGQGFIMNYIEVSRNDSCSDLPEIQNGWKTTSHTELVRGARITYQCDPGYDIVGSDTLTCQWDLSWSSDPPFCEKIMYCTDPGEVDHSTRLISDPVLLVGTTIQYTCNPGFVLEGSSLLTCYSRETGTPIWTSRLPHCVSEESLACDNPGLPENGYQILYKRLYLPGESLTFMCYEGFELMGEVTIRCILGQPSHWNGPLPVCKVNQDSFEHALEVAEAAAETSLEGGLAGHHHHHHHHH
Method: To determine cross reactivity to family member proteins, SEZ6L and SEZ6L2, an ELISA-based assay was used. Plates were coated with SEZ6, SEZ6L, or SEZ6L2 proteins at 0.2 μg/mL in PBS overnight. After washing with PBS containing 0.05% (v/v) Tween 20 (PB ST), the wells were blocked with 2% (w/v) BSA in PBS (PB SA), 100 μL/well for 1 hour at room temperature. Antibody was then added at 1 μg/mL in 100 μL PBSA for 1 hour at room temperature. After washing with PBST, 100 μL/well HRP-labeled goat anti-mouse IgG diluted 1:2,000 in PBSA for 1 hour at room temperature. […] After developing, an equal volume of 2M H₂SO₄ was added to stop substrate development and analyzed by spectrophotometer at OD 450.

rSEZ6-ECD-His = target: T6, rSEZ6-ECD-His (rat, UniProt Q7TSK2 20-922 (mouse entry)); test: bio-layer interferometry (ForteBio RED) or surface plasmon resonance (Biacore 2000) on rat SEZ6-His; the table does not say which; column Rat XR (Kd, nM)
T6 construct: the whole entry is named; also called rat recombinant SEZ6-His; rat SEZ6 ECD
T6 chain: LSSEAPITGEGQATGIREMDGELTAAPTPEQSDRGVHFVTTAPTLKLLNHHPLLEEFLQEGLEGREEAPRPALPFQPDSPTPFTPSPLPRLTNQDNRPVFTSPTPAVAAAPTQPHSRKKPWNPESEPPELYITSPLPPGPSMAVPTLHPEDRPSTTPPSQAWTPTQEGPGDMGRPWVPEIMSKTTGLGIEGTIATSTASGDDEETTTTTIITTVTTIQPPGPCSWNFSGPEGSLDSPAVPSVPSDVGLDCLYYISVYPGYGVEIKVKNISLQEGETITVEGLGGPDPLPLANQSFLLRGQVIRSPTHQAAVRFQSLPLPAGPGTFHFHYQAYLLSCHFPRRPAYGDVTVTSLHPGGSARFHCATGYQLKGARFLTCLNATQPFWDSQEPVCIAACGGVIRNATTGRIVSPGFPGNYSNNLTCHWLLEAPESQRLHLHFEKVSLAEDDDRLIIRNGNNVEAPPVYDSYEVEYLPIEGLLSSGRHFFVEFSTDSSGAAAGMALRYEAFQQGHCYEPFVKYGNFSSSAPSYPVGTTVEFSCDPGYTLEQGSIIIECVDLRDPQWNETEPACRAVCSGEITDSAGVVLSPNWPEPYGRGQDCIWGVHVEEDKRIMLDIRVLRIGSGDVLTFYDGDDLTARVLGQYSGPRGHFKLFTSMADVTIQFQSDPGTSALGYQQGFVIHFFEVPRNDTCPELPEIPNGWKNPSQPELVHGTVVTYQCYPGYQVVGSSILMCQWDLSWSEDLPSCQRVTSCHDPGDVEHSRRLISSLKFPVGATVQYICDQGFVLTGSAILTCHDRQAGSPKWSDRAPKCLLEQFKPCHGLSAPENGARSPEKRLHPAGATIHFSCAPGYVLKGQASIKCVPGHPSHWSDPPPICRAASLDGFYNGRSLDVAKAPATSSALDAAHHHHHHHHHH
From the text: (§2) Various methods were used to analyze the binding and immunochemical characteristics of selected SEZ6 modulators generated as set forth above.

hSEZ6-ECD-His = target: T7, hSEZ6-ECD-His (human, UniProt Q53EL9 20-925); test: bio-layer interferometry (ForteBio RED) or surface plasmon resonance (Biacore 2000) on human SEZ6-His; the table does not say which; column Hu Affinity (Kd, nM)
T7 construct: the whole entry is named; also called recombinant SEZ6-His; human recombinant SEZ6-His
From the text: as §2

binding result [1]: binds
B1: SC17.161 (antibody, V domains shown)
VH: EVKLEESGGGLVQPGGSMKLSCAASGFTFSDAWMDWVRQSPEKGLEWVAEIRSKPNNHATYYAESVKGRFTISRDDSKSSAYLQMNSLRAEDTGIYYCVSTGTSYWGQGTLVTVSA
VL: DIVMSQSPSSLAVSVGEKVTMNCESSQSLLYNSNQKNYLAWYQQKPGQSPKLLIYWASTRDSGVPDRFTGSGSGTDFTLTISSVRADDPAVYYCQQYFNYPLTFGAGTKLELK
notes: murine mAb

binding result [2]: binds
binding result [3]: binds
binding result (human SEZ6L2 ECD-His): binds
binding result (human SEZ6L ECD-His): no binding (tested: 1 µg/mL)
Kd (rSEZ6-ECD-His): < 1 nM
Kd (hSEZ6-ECD-His): < 1 nM
B2: SC17.6 (antibody, V domains shown)
VH: EVQLQQSGPELMKPGASVKMSCKASGYTFTDYNMYWVKQNQGKSLEWIGEINPNNGGTAYNQKFRGKATLTVDKSSSTAYMELRSLTSEDSAVYYCARYDKGFDYWGQGTTLTVSS
VL: DIQMTQSPASLSVSVGETVTITCRASANINSNLVWYQQKQGKSPQLLVYAATNLADGVPSRFSGSGSGTQYSLKINSLQSEDFGNYYCQHFWGTPRTFGGGTKLEIK
notes: murine mAb; also called SC17.16 (duplicate)

binding result [1]: binds
B3: SC17.85 (antibody, V domains shown)
VH: EVQLVESGGDLVKPGGSLKLSCAASGFTFSNYGMSWVRQTPDKRLEWVATISTGGTYTYYPDSVKGRFTISRDNAKNTLYLQMSSLKSEDTAMYYCVGQSYSDYVSFAYWGQGTQVTVSA
VL: DIVMTQAAFSNPVTLGTSASISCRSSKSLLHSNGITYLYWYLQKPGQSPQLLIYQMSNLASGVPERFSSSGSGSDFTLRISRVEAEDVGVYYCAQNLEHPTFGGGTKLEIK
notes: murine mAb

binding result [1]: binds
B4: SC17.91 (antibody, V domains shown)
VH: EVQLVESGGGLVKPGGSRKLSCAASGFTFSDYGMHWVRQAPEKGLEWVAYISRGSSTIHYADTVKGRFTISRDNAKNTLFLQMTSLRSEDTAMYYCARPFNWYFDVWGAGTTVTVSS
VL: DVVMTQTPLSLPVSLGDQASISCRSSQSLVHSNGNTYLLWYLQKPGQSPKLLIYKVSNRFSGVPDRFSGSGSGTDFALKISRVEAEDLGVYFCSQSTHVPWTFGGGTKLEIK
notes: murine mAb
